According to paper PMC4434323:

What was measured:
[1] = target: T1, D1005.3 (D1005.3) (Caenorhabditis elegans) (UniProt Q18909)
T1 sequence: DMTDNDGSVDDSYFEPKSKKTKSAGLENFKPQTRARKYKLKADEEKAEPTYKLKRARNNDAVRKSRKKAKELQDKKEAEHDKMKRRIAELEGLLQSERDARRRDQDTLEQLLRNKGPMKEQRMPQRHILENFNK

[2] = target: T2, C46E10.8 (C46E10.8) (Caenorhabditis elegans) (UniProt O44719)
T2 sequence: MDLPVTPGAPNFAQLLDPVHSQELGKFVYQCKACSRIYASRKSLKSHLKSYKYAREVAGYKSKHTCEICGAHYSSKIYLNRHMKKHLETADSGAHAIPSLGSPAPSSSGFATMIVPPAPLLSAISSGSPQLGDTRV

[3] = target: T3, dmd-6 (F13G11.1) (Caenorhabditis elegans) (UniProt O62159)
T3 sequence: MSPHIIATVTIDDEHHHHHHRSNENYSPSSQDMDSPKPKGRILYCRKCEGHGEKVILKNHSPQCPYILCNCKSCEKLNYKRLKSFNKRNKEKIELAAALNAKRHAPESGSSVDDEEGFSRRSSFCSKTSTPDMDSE

[4] = target: T4, efl-2 (Y48C3A.17) (Caenorhabditis elegans) (UniProt A5HWA8)
T4 sequence: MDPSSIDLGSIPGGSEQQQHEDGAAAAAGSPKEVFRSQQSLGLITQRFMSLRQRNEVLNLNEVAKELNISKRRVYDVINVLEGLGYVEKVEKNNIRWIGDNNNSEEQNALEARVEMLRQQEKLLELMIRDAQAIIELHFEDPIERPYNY

[5] = target: T5, nhr-154 (C13C4.2) (Caenorhabditis elegans) (UniProt O01931)
T5 sequence: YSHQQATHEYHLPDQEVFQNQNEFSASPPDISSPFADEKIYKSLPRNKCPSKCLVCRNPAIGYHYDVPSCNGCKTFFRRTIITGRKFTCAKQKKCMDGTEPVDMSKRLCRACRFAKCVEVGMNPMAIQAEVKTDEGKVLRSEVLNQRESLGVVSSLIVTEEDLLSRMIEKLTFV

[6] = target: T6, lin-31 (K10G6.1) (Caenorhabditis elegans) (UniProt P34683)
T6 sequence: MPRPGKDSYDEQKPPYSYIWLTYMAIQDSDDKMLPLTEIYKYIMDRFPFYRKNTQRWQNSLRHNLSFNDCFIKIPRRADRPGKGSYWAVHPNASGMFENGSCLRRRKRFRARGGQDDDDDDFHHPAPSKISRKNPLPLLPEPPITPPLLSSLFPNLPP

[7] = target: T7, nhr-3 (H01A20.1) (Caenorhabditis elegans) (UniProt Q9XTJ4)
T7 sequence: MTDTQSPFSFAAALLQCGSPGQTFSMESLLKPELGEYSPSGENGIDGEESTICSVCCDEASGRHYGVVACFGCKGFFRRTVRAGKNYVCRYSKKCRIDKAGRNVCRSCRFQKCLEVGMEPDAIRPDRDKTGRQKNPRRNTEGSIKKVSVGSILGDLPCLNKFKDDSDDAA

[8] = target: T8, nhr-7 (F54D1.4) (Caenorhabditis elegans) (UniProt Q20765)
T8 sequence: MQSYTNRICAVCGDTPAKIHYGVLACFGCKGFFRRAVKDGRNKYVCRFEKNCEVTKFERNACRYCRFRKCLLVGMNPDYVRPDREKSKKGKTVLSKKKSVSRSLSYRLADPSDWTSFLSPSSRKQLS

[9] = target: T9, F10B5.3 (F10B5.3) (Caenorhabditis elegans) (UniProt Q09534)
T9 sequence: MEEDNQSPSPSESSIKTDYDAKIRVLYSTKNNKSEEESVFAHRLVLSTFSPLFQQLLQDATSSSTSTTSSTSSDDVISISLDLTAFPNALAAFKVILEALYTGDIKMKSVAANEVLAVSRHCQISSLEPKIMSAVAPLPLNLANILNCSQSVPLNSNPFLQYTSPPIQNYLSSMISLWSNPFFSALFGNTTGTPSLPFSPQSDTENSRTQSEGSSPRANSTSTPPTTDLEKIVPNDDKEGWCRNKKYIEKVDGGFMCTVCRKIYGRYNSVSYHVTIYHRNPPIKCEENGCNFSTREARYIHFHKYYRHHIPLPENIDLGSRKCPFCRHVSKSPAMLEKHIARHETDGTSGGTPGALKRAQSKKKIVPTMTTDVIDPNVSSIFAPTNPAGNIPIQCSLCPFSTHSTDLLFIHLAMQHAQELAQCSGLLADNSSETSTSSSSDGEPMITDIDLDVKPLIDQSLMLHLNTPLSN

[10] = target: T10, hsf-1 (Y53C10A.12) (Caenorhabditis elegans) (UniProt G5EFT5)
T10 sequence: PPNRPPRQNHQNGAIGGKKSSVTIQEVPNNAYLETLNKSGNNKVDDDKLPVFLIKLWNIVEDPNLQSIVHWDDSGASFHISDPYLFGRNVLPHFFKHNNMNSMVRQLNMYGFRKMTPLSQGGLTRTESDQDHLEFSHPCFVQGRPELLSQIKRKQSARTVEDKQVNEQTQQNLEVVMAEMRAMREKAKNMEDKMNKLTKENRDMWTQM

[11] = target: T11, T27F2.4 (T27F2.4) (Caenorhabditis elegans) (UniProt Q22835)
T11 sequence: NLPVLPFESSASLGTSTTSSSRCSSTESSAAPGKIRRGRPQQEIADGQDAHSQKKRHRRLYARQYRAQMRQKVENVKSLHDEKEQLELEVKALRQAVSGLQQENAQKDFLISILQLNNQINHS

[12] = target: T12, pop-1 (W10C8.2) (Caenorhabditis elegans) (UniProt Q10666)
T12 sequence: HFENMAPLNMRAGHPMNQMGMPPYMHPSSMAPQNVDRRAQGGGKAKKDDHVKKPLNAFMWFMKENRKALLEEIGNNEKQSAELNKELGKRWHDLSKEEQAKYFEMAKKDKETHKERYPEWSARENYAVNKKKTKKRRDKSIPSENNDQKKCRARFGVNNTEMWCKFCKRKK

[13] = target: T13, nhr-1 (R09G11.2) (Caenorhabditis elegans) (UniProt Q21878)
T13 sequence: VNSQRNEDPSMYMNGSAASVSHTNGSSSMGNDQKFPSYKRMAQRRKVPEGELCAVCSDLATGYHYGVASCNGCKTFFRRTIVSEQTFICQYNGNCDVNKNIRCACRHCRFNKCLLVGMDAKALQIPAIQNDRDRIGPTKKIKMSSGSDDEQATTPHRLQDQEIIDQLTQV

[14] = target: nhr-34 (F58G6.5) (Caenorhabditis elegans) (UniProt Q21006)
Sequence of nhr-34 (F58G6.5) (Caenorhabditis elegans) (Q21006 99-268): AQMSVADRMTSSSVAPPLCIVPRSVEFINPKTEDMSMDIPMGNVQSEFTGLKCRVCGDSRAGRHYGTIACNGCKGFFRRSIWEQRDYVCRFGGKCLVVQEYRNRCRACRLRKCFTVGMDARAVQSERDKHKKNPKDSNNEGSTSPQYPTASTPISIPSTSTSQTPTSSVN

[15] = target: T14, nhr-46 (C45E5.6) (Caenorhabditis elegans) (UniProt Q95QR2)
T14 sequence: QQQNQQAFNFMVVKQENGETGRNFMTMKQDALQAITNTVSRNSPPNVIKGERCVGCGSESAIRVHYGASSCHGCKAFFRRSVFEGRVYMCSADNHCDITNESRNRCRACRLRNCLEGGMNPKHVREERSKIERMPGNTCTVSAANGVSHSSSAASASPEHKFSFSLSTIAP

[16] = target: T15, Y67D8A.3 (Y67D8A.3) (Caenorhabditis elegans) (UniProt Q95XU1)
T15 sequence: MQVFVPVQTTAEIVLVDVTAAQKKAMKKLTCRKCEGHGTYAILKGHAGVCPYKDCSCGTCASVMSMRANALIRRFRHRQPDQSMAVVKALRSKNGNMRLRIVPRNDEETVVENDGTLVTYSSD

[17] = target: T16, daf-12 (F11A1.3) (Caenorhabditis elegans) (UniProt G5EFF5)
T16 sequence: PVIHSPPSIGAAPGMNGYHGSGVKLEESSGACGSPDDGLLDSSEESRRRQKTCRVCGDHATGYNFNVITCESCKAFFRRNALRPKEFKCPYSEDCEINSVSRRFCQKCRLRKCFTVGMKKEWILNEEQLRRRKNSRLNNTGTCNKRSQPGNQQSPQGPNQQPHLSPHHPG

[18] = target: T17, fkh-9 (K03C7.2) (Caenorhabditis elegans) (UniProt Q21187)
T17 sequence: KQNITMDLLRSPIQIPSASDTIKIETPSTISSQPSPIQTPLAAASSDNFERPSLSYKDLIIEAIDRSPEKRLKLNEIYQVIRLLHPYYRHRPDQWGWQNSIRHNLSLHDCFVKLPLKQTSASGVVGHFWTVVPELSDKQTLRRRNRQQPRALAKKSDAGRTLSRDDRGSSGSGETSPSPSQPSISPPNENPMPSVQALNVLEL

[19] = target: T18, let-381 (F26B1.7) (Caenorhabditis elegans) (UniProt P91278)
T18 sequence: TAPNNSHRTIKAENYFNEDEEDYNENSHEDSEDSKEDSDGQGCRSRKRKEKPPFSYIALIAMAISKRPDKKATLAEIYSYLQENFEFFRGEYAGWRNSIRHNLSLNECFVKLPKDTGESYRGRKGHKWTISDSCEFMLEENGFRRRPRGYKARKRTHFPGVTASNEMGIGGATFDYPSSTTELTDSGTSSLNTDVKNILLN

[20] = target: T19, ztf-27 (T09F3.1) (Caenorhabditis elegans) (UniProt G5EDA0)
T19 sequence: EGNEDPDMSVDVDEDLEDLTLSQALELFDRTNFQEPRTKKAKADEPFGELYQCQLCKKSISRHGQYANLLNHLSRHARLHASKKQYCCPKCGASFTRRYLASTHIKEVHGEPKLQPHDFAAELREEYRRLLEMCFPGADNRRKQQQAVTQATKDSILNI

Work on “TTGCGAAA (double strand) [8-mer TTGCGAAA]” yielded a binding signal (PBM E-score (-0.5 to 0.5)) [1] of 0.466.
Work on “AATTTATA (double strand) [8-mer AATTTATA]” yielded a binding signal (PBM E-score (-0.5 to 0.5)) [2] of 0.457 and a binding signal (PBM E-score (-0.5 to 0.5)) [3] of 0.471.
For “GGCGCCAA (double strand) [8-mer GGCGCCAA]”, the binding signal (PBM E-score (-0.5 to 0.5)) [4] was 0.488 and the binding signal (PBM E-score (-0.5 to 0.5)) [5] was 0.46.
In the case of “ATAAATTA (double strand) [8-mer ATAAATTA]”, the binding signal (PBM E-score (-0.5 to 0.5)) [2] is reported as 0.451.
“TATTTACA (double strand) [8-mer TATTTACA]” gave a binding signal (PBM E-score (-0.5 to 0.5)) [6] of 0.474.
Work on “AAAGACCA (double strand) [8-mer AAAGACCA]” yielded a binding signal (PBM E-score (-0.5 to 0.5)) [7] of 0.459 and a binding signal (PBM E-score (-0.5 to 0.5)) [8] of 0.472.
Sequence “TTCCAGAA (double strand) [8-mer TTCCAGAA]” has a binding signal (PBM E-score (-0.5 to 0.5)) [9] of 0.491 and a binding signal (PBM E-score (-0.5 to 0.5)) [10] of 0.489.
With “TTACGAAA (double strand) [8-mer TTACGAAA]” the binding signal (PBM E-score (-0.5 to 0.5)) [1] was 0.464 and the binding signal (PBM E-score (-0.5 to 0.5)) [11] was 0.463.
Work on “ATCAAAGA (double strand) [8-mer ATCAAAGA]” yielded a binding signal (PBM E-score (-0.5 to 0.5)) [12] of 0.456.
“TAAATTTA (double strand) [8-mer TAAATTTA]” showed a binding signal (PBM E-score (-0.5 to 0.5)) [2] of 0.459.
“AAAGATCA (double strand) [8-mer AAAGATCA]” was tested, and the binding signal (PBM E-score (-0.5 to 0.5)) [13] was 0.472, the binding signal (PBM E-score (-0.5 to 0.5)) [7] was 0.488 and the binding signal (PBM E-score (-0.5 to 0.5)) [14] was 0.485. It also gave a binding signal (PBM E-score (-0.5 to 0.5)) [15] of 0.49 and a binding signal (PBM E-score (-0.5 to 0.5)) [8] of 0.476.
“AGGCGCCA (double strand) [8-mer AGGCGCCA]” showed a binding signal (PBM E-score (-0.5 to 0.5)) [5] of 0.452.
“AAAGGTCA (double strand) [8-mer AAAGGTCA]” was tested, and the binding signal (PBM E-score (-0.5 to 0.5)) [16] was 0.493, the binding signal (PBM E-score (-0.5 to 0.5)) [17] was 0.491 and the binding signal (PBM E-score (-0.5 to 0.5)) [7] was 0.479.
Sequence “GTAAACAA (double strand) [8-mer GTAAACAA]” has a binding signal (PBM E-score (-0.5 to 0.5)) [18] of 0.492, a binding signal (PBM E-score (-0.5 to 0.5)) [19] of 0.486 and a binding signal (PBM E-score (-0.5 to 0.5)) [6] of 0.47.
For “TGGCGCCA (double strand) [8-mer TGGCGCCA]”, the binding signal (PBM E-score (-0.5 to 0.5)) [4] was 0.492, the binding signal (PBM E-score (-0.5 to 0.5)) [5] was 0.474 and the binding signal (PBM E-score (-0.5 to 0.5)) [20] was 0.491.
With “TGTAAACA (double strand) [8-mer TGTAAACA]” the binding signal (PBM E-score (-0.5 to 0.5)) [18] was 0.485, the binding signal (PBM E-score (-0.5 to 0.5)) [19] was 0.461 and the binding signal (PBM E-score (-0.5 to 0.5)) [6] was 0.476.
For “AAGACCAA (double strand) [8-mer AAGACCAA]”, the binding signal (PBM E-score (-0.5 to 0.5)) [7] was 0.457, the binding signal (PBM E-score (-0.5 to 0.5)) [14] was 0.473 and the binding signal (PBM E-score (-0.5 to 0.5)) [8] was 0.469.
In the case of “GCGCCAAA (double strand) [8-mer GCGCCAAA]”, the binding signal (PBM E-score (-0.5 to 0.5)) [5] is reported as 0.453.
In the case of “CATCAAAG (double strand) [8-mer CATCAAAG]”, the binding signal (PBM E-score (-0.5 to 0.5)) [12] is reported as 0.463.
“TAAACAAA (double strand) [8-mer TAAACAAA]” showed a binding signal (PBM E-score (-0.5 to 0.5)) [19] of 0.493 and a binding signal (PBM E-score (-0.5 to 0.5)) [6] of 0.473.
Work on “AAGATCAA (double strand) [8-mer AAGATCAA]” yielded a binding signal (PBM E-score (-0.5 to 0.5)) [7] of 0.486, a binding signal (PBM E-score (-0.5 to 0.5)) [14] of 0.494 and a binding signal (PBM E-score (-0.5 to 0.5)) [15] of 0.496. The binding signal (PBM E-score (-0.5 to 0.5)) [8] was 0.455.
Work on “TTCTAGAA (double strand) [8-mer TTCTAGAA]” yielded a binding signal (PBM E-score (-0.5 to 0.5)) [9] of 0.477 and a binding signal (PBM E-score (-0.5 to 0.5)) [10] of 0.498.
With “CTTTGATC (double strand) [8-mer CTTTGATC]” the binding signal (PBM E-score (-0.5 to 0.5)) [12] was 0.451.
“AATTTATG (double strand) [8-mer AATTTATG]” gave a binding signal (PBM E-score (-0.5 to 0.5)) [2] of 0.465.
